The values that follow come from patent publication US20230129844A1 (Amgen, published 2023).

The target in the assay is human MUC17 (huMUC17), membrane form (human, UniProt Q685J3 26-4493). The assay can be described thus: immunohistochemistry on tissue sections.

B1: anti-huMUC17 4C11 IHC antibody (antibody, mouse IgG2a, kappa, V domains shown)
VH: EVQLQQSGPELVKPGDSVKISCKASGYSFTGNFLNWVMQSHGKSLEWIGRITPYSGETFYNQKFKDKATLTVDISSSIAHMELRSLTSEDSAVYYCARGVTTEVSHYYAMDYWGQGTAVTVSS
VL: DIQMNQSPSSLSASLGDTITITCHASQNINLWLHWYQQKPGNIPKLLIFKASNLHTGVPLRFSGSGSGTGFTLTISSLQPEDIATYFCQQGQSYPLTFGGGTKLEIKR
notes: Mouse hybridoma-derived monoclonal antibody; also called 4C11 antibody; the antibody of the invention
B1: the binding result was “binds”.
